This passage reports koff and kon results from patent US20200376034A1 (DRAGONFLY THERAPEUTICS, published 2020).

Experiment [1] addresses T1, human CD33 extracellular domain (human, UniProt P20138 18-259).
T1 construct: also called human CD33 ECD; hCD33
Kind of experiment: SPR, Fab captured, 37 C. Background: SPR reads the build-up and loss of mass on a sensor chip optically.
Protocol: (§1) Kinetics and affinity of a series of Fab fragments of anti-CD33 antibodies with different CD33 variants (human CD33 ECD, cyno CD33 ECD, V-domain of human CD33, C-domain or human CD33 and selected CD33 SNPs) were assessed by surface plasmon resonance using Biacore 8K instrument (GE Healthcare). Anti-Fab antibody was immobilized on a CMS chip using standard amine coupling chemistry. CD33 FABs were captured on the anti-Fab chip at a density of ˜100 RU. Solutions containing different concentrations of soluble monomeric CD33 or its domains were injected over the captured FABs and control surfaces at 30 μl/min at 37° C. Surfaces were regenerated between cycles by quick injection of 10 mM glycine, pH 1.8. To obtain kinetic rate constants double-referenced data were fit to a 1:1 interaction model using Biacore 8K Evaluation software (GE Healthcare). The equilibrium binding constant KD was determined by the ratio of binding rate constants kd/kₐ.
(§2) Affinity of 29 Fab fragments binding to human and cyno CD33 ECD were assayed by Biacore analysis.

The target of experiment [2] is T1, human CD33 extracellular domain. Kind of experiment: SPR, Fab captured, 37 C. This is another data set of the same source.
Protocol: as §1, §2
Experiment [3] addresses T2, deglycosylated V domain of human CD33 (human, UniProt P20138 18-139, limits assumed, deglycosylated by PNGase).
T2 construct: whole entry named; also called deglycosylated V CD33
Kind of experiment: SPR, Fab captured, 37 C.
Protocol: as §1
The ability of anti-CD33 antibodies to recognize glycosylated CD33 was assayed. […] De-glycosylation status was confirmed by a shift on SDS-PAGE and MS.

For experiment [4], the target named is T1, human CD33 extracellular domain. Kind of experiment: SPR, Fab captured, 37 C. The source holds these as a separate data set.
Protocol: as §1
Experiment [5] shares this target. Kind of experiment: SPR, Fab captured, 37 C. The source holds these as a separate data set.
Protocol: as §1, §2
Experiment [6] has the same target. The experiment is described as follows: BLI, IgG on sensor. (In BLI a coated tip is dipped into the sample, and binding shifts an interference pattern.)
Protocol: Briefly, ForteBio affinity measurements were performed by loading IgGs on-line onto AHC sensors. Sensors were equilibrated off-line in assay buffer for 30 min and then monitored on-line for 60 seconds for baseline establishment. Sensors with loaded IgGs were exposed to 100 nM antigen for 3 minutes, and afterwards were transferred to assay buffer for 3 min for off-rate measurement. All kinetics were analyzed using the 1:1 binding model.

A word on the koff: it is the first-order rate constant of dissociation. By kon is commonly meant the second-order rate constant of association. Higher therefore signals fast association.

B1: ADI-10163 Fab (Fab, V domains shown)
VH: QVQLQESGPGLVKPSQTLSLTCTVSGGSISSGGYYWSWIRQHPGKGLEWIGSIYYSGSTYYNPSLKSRVTISVDTSKNQFSLKLSSVTAADTAVYYCARDRLDYSYNYGMDVWGQGTTVTVSS
VL: DIQMTQSPSSLSASVGDRVTITCRASQSISSYLNWYQQKPGKAPKLLIYGASSLQSGVPSRFSGSGSGTDFTLTISSLQPEDFATYYCQQVYSAPFTFGGGTKVEIK
notes: Fab fragment; also called Ab17
In the case of B1, the koff in experiment [1] was found to be 0.0275 s⁻¹; in experiment [2] it was 0.0275 s⁻¹; in experiment [3] it was 0.256 s⁻¹; in experiment [4] it was 0.0275 s⁻¹; in experiment [5] it was 0.0275 s⁻¹. Besides, the kon in experiment [1] amounted to 515000 M⁻¹ s⁻¹; in experiment [2] it was 515000 M⁻¹ s⁻¹; in experiment [3] it was 1.68e+06 M⁻¹ s⁻¹; in experiment [4] it was 515000 M⁻¹ s⁻¹; in experiment [5], 515000 M⁻¹ s⁻¹.

B2: ADI-10163 IgG (antibody, V domains shown)
VH: B1 VH
VL: B1 VL
notes: IgG; also called Ab17
In experiment [6], B2 gave a koff of 0.00453 s⁻¹ and a kon of 665000 M⁻¹ s⁻¹.

B3: ADI-10173 Fab (Fab, V domains shown)
VH: QVQLVQSGAEVKKPGASVKVSCKASGYTFTSYYMHWVRQAPGQGLEWMGIINPSGGSTTYAQKFQGRVTMTRDTSTSTVYMELSSLRSEDTAVYYCAREAADGFVGERYFDLWGRGTLVTVSS
VL: not shown
notes: Fab fragment; also called Ab22
As for B3, the koff in experiment [1] came to 0.0125 s⁻¹; in experiment [2] it was 0.0125 s⁻¹; in experiment [3], 0.131 s⁻¹; in experiment [4], 0.0125 s⁻¹; in experiment [5], 0.0125 s⁻¹. The kon was found to be 212000 M⁻¹ s⁻¹ in experiment [1]; 212000 M⁻¹ s⁻¹ in experiment [2]; 674000 M⁻¹ s⁻¹ in experiment [3]; 212000 M⁻¹ s⁻¹ in experiment [4]; 212000 M⁻¹ s⁻¹ in experiment [5].

B4: ADI-10173 IgG (antibody, V domains shown)
VH: B3 VH
VL: not shown
notes: IgG; also called Ab22
In experiment [6], B4 showed a koff of 0.00314 s⁻¹ and a kon of 324000 M⁻¹ s⁻¹.
